# Ends that are not written are not given here.
# Target: Heat Shock Protein 90 (HSP90), endogenous, in human cell lines (human, UniProt P07900 2-732)
# Test: cell-based or functional assay
row,Binder,"clonogenic survival of UMSCC1 cells (Survival Fraction), peptide delivered with Chariot [survival fraction]"
1,NHVPSDVC (not fully specified) [Peptide 8 NHVPSDVC (scrambled peptide)],1
2,DEAYVMA [Peptide 1 DEAYVMA],0.93
3,SVDNPHVC (not fully specified) [Peptide 2 SVDNPHVC (Disruptin)],0.77
4,RLLGIC [Peptide 3 RLLGIC],0.85
5,GVGSPYVS [Peptide 4 GVGSPYVS],1
6,SVGNPHVC [Peptide 7 SVGNPHVC],0.97
7,DEAYVMAGVGSPYVSRLLGIC [Peptide 6 DEAYVMAGVGSPYVSRLLGIC],1
